Assay results reported in PMC7993378, “Inhibition of bacterial and human zinc-metalloproteases by bisphosphonate- and catechol-containing compounds” (Journal of Enzyme Inhibition and Medicinal Chemistry, 2021).

System: COc1ccc2c(CC(=O)N[C@@H](CCCNC(=N)N)C(=O)N3CCC[C@H]3C(=O)N3CCC[C@H]3C(=O)NCC(=O)N[C@@H](Cc3ccccc3)C(=O)N[C@@H](CO)C(=O)N[C@@H](C)C(=O)N[C@@H](Cc3ccccc3)C(=O)N[C@@H](CCCCNc3ccc([N+](=O)[O-])cc3[N+](=O)[O-])C(=O)O)cc(=O)oc2c1
Test: Km determination of McaRPPGFSAFK(Dnp)-OH with TLN
Type: biochemical, Bacillus thermoproteolyticus
Conditions: other: 2% DMSO; pH 7.5
Method: The estimated Km values for ALN and PLN must be regarded as uncertain since the highest substrate concentration used was 10 µM due to quenching. The obtained Km values are very similar to those previously obtained for theses enzymes without DMSO[57] or with a DMSO concentration of 5%[58]. Previously it was reported that TLN is inactivated in most organic cosolvents, but can tolerate up to 10% DMSO to enhance substrate solubility. For TLN, the Km value was also determined with a DMSO concentration of 2%.
Km values were determined for McaPLGL(Dpa)AR-NH2 with APMA-activated recombinant MMP-9 (rMMP-9(A)), trypsin-activated MMP-9 from THP-1 cells (MMP-9(T)) and MMP-14, and for McaRPPGFSAFK(Dnp)-OH with ALN, PLN and TLN. Substrate concentrations used were 1–10 µM in a total volume of 100 µL of 0.1 M Hepes pH 7.5 containing 10 mM CaCl2, 0.005% Brij-35 and 1.0% DMSO. […] Initial rate experiments were performed as described above for the determination of enzyme activity of MMP-9 during activation and the same excitation and emission wavelengths were used for both substrates.

Substance: TLN (Bacillus thermoproteolyticus)
- Km: 7 ± 1 µM
